*1 amine or outer side, *2 acyl side, *3 side chain or, on linkers, in order; H or OH if unused. Where no end group is shown, it is not given here. Side-chain parts run from the residue outwards. [ ]: non-standard residue; d: D form. The star is where a group is joined. αMePhe(2-F) = C[C@](N)(Cc1ccccc1F)C(=O)O; γGlu = O=C(O)[C@H](CCC(=O)[*:2])N[*:1]; C14 diacid = O=C(O)CCCCCCCCCCCCC(=O)*; αMeY = C[C@](N)(Cc1ccc(O)cc1)C(=O)O; αMeF = C[C@](N)(Cc1ccccc1)C(=O)O; αMeL = CC(C)C[C@](C)(N)C(=O)O; Orn = NCCC[C@H](N)C(=O)O; AEEA = NCCOCCOCC(=O)O; Aib = CC(C)(N)C(=O)O
B1: Example 108 (peptide)
peptide: Y[Aib]EGT[αMePhe(2-F)]TSDK([AEEA-AEEA-γGlu-C14 diacid])SI[αMeL]LD[Orn]IAQ[Aib]EFI[dE][αMeY]LIEGGK([AEEA-AEEA-γGlu-C14 diacid])SSGAPPPS-NH2
modifications: N-terminus assumed
SMILES: CC[C@H](C)[C@H](NC(=O)[C@H](CCCN)NC(=O)[C@H](CC(=O)O)NC(=O)[C@H](CC(C)C)NC(=O)[C@](C)(CC(C)C)NC(=O)[C@@H](NC(=O)[C@H](CO)NC(=O)[C@H](CCCCNC(=O)COCCOCCNC(=O)COCCOCCNC(=O)CC[C@H](NC(=O)CCCCCCCCCCCCC(=O)O)C(=O)O)NC(=O)[C@H](CC(=O)O)NC(=O)[C@H](CO)NC(=O)[C@@H](NC(=O)[C@](C)(Cc1ccccc1F)NC(=O)[C@@H](NC(=O)CNC(=O)[C@H](CCC(=O)O)NC(=O)C(C)(C)NC(=O)[C@@H](N)Cc1ccc(O)cc1)[C@@H](C)O)[C@@H](C)O)[C@@H](C)CC)C(=O)N[C@@H](C)C(=O)N[C@@H](CCC(N)=O)C(=O)NC(C)(C)C(=O)N[C@@H](CCC(=O)O)C(=O)N[C@@H](Cc1ccccc1)C(=O)N[C@H](C(=O)N[C@H](CCC(=O)O)C(=O)N[C@@](C)(Cc1ccc(O)cc1)C(=O)N[C@@H](CC(C)C)C(=O)N[C@H](C(=O)N[C@@H](CCC(=O)O)C(=O)NCC(=O)NCC(=O)N[C@@H](CCCCNC(=O)COCCOCCNC(=O)COCCOCCNC(=O)CC[C@H](NC(=O)CCCCCCCCCCCCC(=O)O)C(=O)O)C(=O)N[C@@H](CO)C(=O)N[C@@H](CO)C(=O)NCC(=O)N[C@@H](C)C(=O)N1CCC[C@H]1C(=O)N1CCC[C@H]1C(=O)N1CCC[C@H]1C(=O)N[C@@H](CO)C(N)=O)[C@@H](C)CC)[C@@H](C)CC
B2: Example 107 (peptide)
peptide: Y[Aib]EGT[αMePhe(2-F)]TSDK([AEEA-AEEA-γGlu-C14 diacid])SI[αMeL]LD[Orn]IAQ[Aib]EFI[dE][αMeY]LIK([AEEA-AEEA-γGlu-C14 diacid])GGPSSGAPPPS-NH2
modifications: N-terminus assumed
SMILES: CC[C@H](C)[C@H](NC(=O)[C@H](CCCN)NC(=O)[C@H](CC(=O)O)NC(=O)[C@H](CC(C)C)NC(=O)[C@](C)(CC(C)C)NC(=O)[C@@H](NC(=O)[C@H](CO)NC(=O)[C@H](CCCCNC(=O)COCCOCCNC(=O)COCCOCCNC(=O)CC[C@H](NC(=O)CCCCCCCCCCCCC(=O)O)C(=O)O)NC(=O)[C@H](CC(=O)O)NC(=O)[C@H](CO)NC(=O)[C@@H](NC(=O)[C@](C)(Cc1ccccc1F)NC(=O)[C@@H](NC(=O)CNC(=O)[C@H](CCC(=O)O)NC(=O)C(C)(C)NC(=O)[C@@H](N)Cc1ccc(O)cc1)[C@@H](C)O)[C@@H](C)O)[C@@H](C)CC)C(=O)N[C@@H](C)C(=O)N[C@@H](CCC(N)=O)C(=O)NC(C)(C)C(=O)N[C@@H](CCC(=O)O)C(=O)N[C@@H](Cc1ccccc1)C(=O)N[C@H](C(=O)N[C@H](CCC(=O)O)C(=O)N[C@@](C)(Cc1ccc(O)cc1)C(=O)N[C@@H](CC(C)C)C(=O)N[C@H](C(=O)N[C@@H](CCCCNC(=O)COCCOCCNC(=O)COCCOCCNC(=O)CC[C@H](NC(=O)CCCCCCCCCCCCC(=O)O)C(=O)O)C(=O)NCC(=O)NCC(=O)N1CCC[C@H]1C(=O)N[C@@H](CO)C(=O)N[C@@H](CO)C(=O)NCC(=O)N[C@@H](C)C(=O)N1CCC[C@H]1C(=O)N1CCC[C@H]1C(=O)N1CCC[C@H]1C(=O)N[C@@H](CO)C(N)=O)[C@@H](C)CC)[C@@H](C)CC
B3: Example 109 (peptide)
peptide: YXEGTXTSDKSIXLDXIAQXKXIXXLIEGGPSSGAPPPS
modifications: Aib2, αMeF(2F)6, αMeL13, Orn16, Aib20, αMeF22, D-Glu24, αMeY25, K10 and K21: K(AEEA2-(γ-Glu)-CO-(CH2)12-CO2H), C-terminal NH2
B4: Example 111 (peptide)
peptide: Y[Aib]EGT[αMePhe(2-F)]TSDK([AEEA-AEEA-γGlu-C14 diacid])SI[αMeL]LD[Orn]IAQ[Aib]E[αMeF]I[dE][αMeY]LIK([AEEA-AEEA-γGlu-C14 diacid])GGPSSGAPPPS-NH2
modifications: N-terminus assumed
SMILES: CC[C@H](C)[C@H](NC(=O)[C@H](CCCN)NC(=O)[C@H](CC(=O)O)NC(=O)[C@H](CC(C)C)NC(=O)[C@](C)(CC(C)C)NC(=O)[C@@H](NC(=O)[C@H](CO)NC(=O)[C@H](CCCCNC(=O)COCCOCCNC(=O)COCCOCCNC(=O)CC[C@H](NC(=O)CCCCCCCCCCCCC(=O)O)C(=O)O)NC(=O)[C@H](CC(=O)O)NC(=O)[C@H](CO)NC(=O)[C@@H](NC(=O)[C@](C)(Cc1ccccc1F)NC(=O)[C@@H](NC(=O)CNC(=O)[C@H](CCC(=O)O)NC(=O)C(C)(C)NC(=O)[C@@H](N)Cc1ccc(O)cc1)[C@@H](C)O)[C@@H](C)O)[C@@H](C)CC)C(=O)N[C@@H](C)C(=O)N[C@@H](CCC(N)=O)C(=O)NC(C)(C)C(=O)N[C@@H](CCC(=O)O)C(=O)N[C@@](C)(Cc1ccccc1)C(=O)N[C@H](C(=O)N[C@H](CCC(=O)O)C(=O)N[C@@](C)(Cc1ccc(O)cc1)C(=O)N[C@@H](CC(C)C)C(=O)N[C@H](C(=O)N[C@@H](CCCCNC(=O)COCCOCCNC(=O)COCCOCCNC(=O)CC[C@H](NC(=O)CCCCCCCCCCCCC(=O)O)C(=O)O)C(=O)NCC(=O)NCC(=O)N1CCC[C@H]1C(=O)N[C@@H](CO)C(=O)N[C@@H](CO)C(=O)NCC(=O)N[C@@H](C)C(=O)N1CCC[C@H]1C(=O)N1CCC[C@H]1C(=O)N1CCC[C@H]1C(=O)N[C@@H](CO)C(N)=O)[C@@H](C)CC)[C@@H](C)CC

Molecular target: human glucagon receptor (human, UniProt P47871 26-477)
Assay: cell-based or functional assay

| Binder | EC50, cAMP |
| --- | --- |
| B1 | > 9950 nM |
| B2 | > 9950 nM |
| B3 | > 9950 nM |
| B4 | > 9950 nM |
| Y[Aib]EGT[αMePhe(2-F)]TSDK([AEEA-AEEA-γGlu-C14 diacid])SI[αMeL]LD[Orn]IAQ[Aib]E[αMeF]IK([AEEA-AEEA-γGlu-C14 diacid])[αMeY]LIEGGPSSGAPPPS-NH2 [Example 110] | > 9950 nM |
| Y[Aib]EGT[αMePhe(2-F)]TSDK([AEEA-AEEA-γGlu-C14 diacid])SI[αMeL]LD[Orn]IAQ[Aib]EFIK([AEEA-AEEA-γGlu-C14 diacid])[αMeY]LIEGGPSSGAPPPS-NH2 [Example 106] | > 9950 nM |

Molecular target: T1, human GIP receptor (human, UniProt P48546 22-466)
T1 sequence (looked up): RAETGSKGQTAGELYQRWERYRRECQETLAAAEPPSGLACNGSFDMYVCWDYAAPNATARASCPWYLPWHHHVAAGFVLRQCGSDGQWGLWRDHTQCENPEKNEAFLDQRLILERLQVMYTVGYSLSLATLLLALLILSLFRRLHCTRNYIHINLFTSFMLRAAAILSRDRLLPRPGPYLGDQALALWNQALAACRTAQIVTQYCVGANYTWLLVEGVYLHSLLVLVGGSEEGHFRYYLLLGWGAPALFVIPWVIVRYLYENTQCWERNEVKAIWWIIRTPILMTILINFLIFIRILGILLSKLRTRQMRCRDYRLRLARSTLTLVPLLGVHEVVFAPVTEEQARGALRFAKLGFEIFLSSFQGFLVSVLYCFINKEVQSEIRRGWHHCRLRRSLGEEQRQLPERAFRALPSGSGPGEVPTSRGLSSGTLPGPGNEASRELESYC
Assay: cell-based or functional assay

| Binder | EC50, cAMP | Emax, cAMP |
| --- | --- | --- |
| B1 | 0.0249 nM | 85.2% |
| B2 | 0.0473 nM | 94.3% |
| B3 | 0.0236 nM | 84.8% |
| B4 | 0.0202 nM | 76.1% |
| Y[Aib]EGT[αMePhe(2-F)]TSDK([AEEA-AEEA-γGlu-C14 diacid])SI[αMeL]LD[Orn]IAQ[Aib]E[αMeF]IK([AEEA-AEEA-γGlu-C14 diacid])[αMeY]LIEGGPSSGAPPPS-NH2 [Example 110] | 0.0417 nM | – |
| Y[Aib]EGT[αMePhe(2-F)]TSDK([AEEA-AEEA-γGlu-C14 diacid])SI[αMeL]LD[Orn]IAQ[Aib]EFIK([AEEA-AEEA-γGlu-C14 diacid])[αMeY]LIEGGPSSGAPPPS-NH2 [Example 106] | 0.0385 nM | 98.7% |

Molecular target: human GLP-1 receptor (human, UniProt P43220 24-463)
Assay: cell-based or functional assay

| Binder | EC50, cAMP | Emax, cAMP |
| --- | --- | --- |
| B1 | 0.701 nM | 97.6% |
| B2 | 1.01 nM | 93.4% |
| B3 | 0.846 nM | – |
| B4 | 2.28 nM | 121% |
| Y[Aib]EGT[αMePhe(2-F)]TSDK([AEEA-AEEA-γGlu-C14 diacid])SI[αMeL]LD[Orn]IAQ[Aib]E[αMeF]IK([AEEA-AEEA-γGlu-C14 diacid])[αMeY]LIEGGPSSGAPPPS-NH2 [Example 110] | 1.43 nM | 98.8% |
| Y[Aib]EGT[αMePhe(2-F)]TSDK([AEEA-AEEA-γGlu-C14 diacid])SI[αMeL]LD[Orn]IAQ[Aib]EFIK([AEEA-AEEA-γGlu-C14 diacid])[αMeY]LIEGGPSSGAPPPS-NH2 [Example 106] | 0.296 nM | – |

Reference: US20230265151A1, “GIP/GLP1 CO-AGONIST COMPOUNDS” (priority 2020, published 2023)
